Data on two substances can be found in paper PMC8427755.

Assay [1] has as its target His-tagged mFcγRIV (R&D Systems) (mouse). Briefly: SPR; Biacore T200, CM5 chip with anti-His capture; His-tagged hFcγRIIIa or mFcγRIV captured; 15 mM Tris-HCl, 150 mM NaCl, 0.005% Tween 20, pH 7.4, 25°C; single cycle (hFcγRIIIa) or multi cycle (mFcγRIV) kinetics; 1:1 Langmuir model, two state reaction model for LFBD192 on hFcγRIIIa.
In assay [2] the target is His-tagged hFcγRIIIa (Sinobiological) (human) (UniProt P08637). Described as above.
Assay [3] deals with human FcRn expressed at the surface of Jurkat cells (human) (UniProt P55899). Briefly: flow cytometry on cells; competitive binding on FcRn-transfected Jurkat cells; Alexa-labelled rituximab (30 ug/mL) with the tested molecule, PBS pH 6.0; mean of 2 experiments. (In general: In flow cytometry, cells or beads pass a laser one at a time.)
Assay [4] has as its target FcγRIIa-R131 on transfected HEK cells (human). Briefly: flow cytometry on cells; competitive binding on cells transfected with FcγRIIa-H131, FcγRIIa-R131, FcγRIIb or FcγRI; Alexa-labelled rituximab (30 ug/mL) with the tested molecule, PBS pH 7.4; mean of 2 experiments.
The target of assay [5] is FcγRIIa-H131 on transfected cells (human) (UniProt P12318). The assay is described as above.
Assay [6] has as its target FcγRI on transfected Jurkat cells (human) (UniProt P12314). Described as above.
The target of assay [7] is FcγRIIb on transfected HEK cells (human) (UniProt P31994). The description is as above.
Assay [8] concerns the target FcγRIIIa-F158 on transfected Jurkat cells (human) (UniProt P08637). Briefly: flow cytometry on cells; competitive binding on FcγRIIIa-F158-transfected Jurkat cells; FITC-conjugated anti-FcγRIIIa 3G8 (0.5 ug/mL) with 17-2168 nM of the tested molecule, 20 min, 4°C, PBS pH 7.4; mean of 2 experiments.
Assay [9] deals with biotinylated mouse FcRn (Acrobiosystem) (mouse | not stated) (UniProt Q61559). Briefly: SPR; Biacore T200, sensor chip CAP; biotinylated human or mouse FcRn captured; samples injected in single cycle kinetic mode, 25°C; 20 mM sodium phosphate, 150 mM NaCl, 0.05% Tween 20, pH 6.0; 1:1 Langmuir model, steady state model for IVIg on hFcRn. Background: SPR reads the build-up and loss of mass on a sensor chip optically.

Assay [10] has as its target biotinylated human FcRn (Acrobiosystem) (human) (UniProt P55899). The assay is described as above.
Assay [11] deals with FcγRI on transfected Jurkat cells (human) (UniProt P12314).
The target of assay [12] is recombinant human FcRn receptor (FcRn alpha-chain and beta2-microglobulin heterodimer), biotinylated (human) (UniProt P55899). Briefly: BLI; Octet RED96; biotinylated hFcRn fixed on streptavidin biosensors; Fc samples 200-3.125 nM; 0.1 M phosphate, 150 mM NaCl, 0.05% Tween 20, pH 6.0; 1/1 model; means of 3 experiments. (In general: Biolayer interferometry detects binding as a change in optical thickness at a sensor tip.)

The target in assay [13] is Recombinant human FcγRIIIa V/CD16aV (human). Briefly: BLI; Octet RED96; His-tagged hFcγRIIIa V fixed on anti-penta-His (HIS-1K) biosensors; Fc samples 1,000-15.625 nM in kinetic buffer, pH 7.4; 1/1 model; means of 3 experiments.

As a reminder, the Kd is the constant that tells how readily two partners part at equilibrium. Usually IC50 stands for the concentration at which inhibition is half-maximal. A higher IC50 goes with lower potency.

UniProt P12314, sequence (P12314 16-374): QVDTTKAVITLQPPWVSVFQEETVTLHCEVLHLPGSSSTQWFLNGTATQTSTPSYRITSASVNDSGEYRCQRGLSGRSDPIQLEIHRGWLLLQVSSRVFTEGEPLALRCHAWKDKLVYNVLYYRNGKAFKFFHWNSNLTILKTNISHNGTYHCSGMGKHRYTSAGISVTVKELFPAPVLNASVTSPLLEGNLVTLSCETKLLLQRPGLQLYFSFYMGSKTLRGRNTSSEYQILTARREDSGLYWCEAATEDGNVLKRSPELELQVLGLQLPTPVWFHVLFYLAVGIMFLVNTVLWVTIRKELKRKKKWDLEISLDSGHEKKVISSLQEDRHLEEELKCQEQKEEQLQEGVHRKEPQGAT
UniProt P08637, sequence (P08637 17-254): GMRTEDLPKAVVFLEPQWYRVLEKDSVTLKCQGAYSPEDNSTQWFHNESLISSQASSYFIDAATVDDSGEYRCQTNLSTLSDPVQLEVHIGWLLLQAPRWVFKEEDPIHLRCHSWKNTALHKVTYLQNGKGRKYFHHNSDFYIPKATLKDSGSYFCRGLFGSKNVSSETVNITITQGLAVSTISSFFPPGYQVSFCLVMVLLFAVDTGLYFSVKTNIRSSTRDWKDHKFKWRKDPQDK
UniProt P31994, sequence (P31994 43-310): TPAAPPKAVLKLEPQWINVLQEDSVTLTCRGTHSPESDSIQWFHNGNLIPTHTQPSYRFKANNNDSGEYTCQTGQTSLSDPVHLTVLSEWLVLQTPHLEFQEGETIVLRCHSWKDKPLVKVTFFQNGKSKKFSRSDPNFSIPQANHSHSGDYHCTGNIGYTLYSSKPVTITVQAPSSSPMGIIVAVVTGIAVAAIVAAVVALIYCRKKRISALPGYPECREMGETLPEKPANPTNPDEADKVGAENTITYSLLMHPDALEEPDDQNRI
UniProt Q61559, sequence (Q61559 22-297, chain 1 of 2): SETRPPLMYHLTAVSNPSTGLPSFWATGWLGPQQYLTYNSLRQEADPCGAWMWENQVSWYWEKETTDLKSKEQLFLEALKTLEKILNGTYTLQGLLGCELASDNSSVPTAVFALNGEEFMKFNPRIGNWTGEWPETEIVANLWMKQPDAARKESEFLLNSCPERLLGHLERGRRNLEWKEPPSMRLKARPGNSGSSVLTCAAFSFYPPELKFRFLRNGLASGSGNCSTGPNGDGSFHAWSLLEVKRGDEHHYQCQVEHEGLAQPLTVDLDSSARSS
UniProt Q61559, sequence (P01887 21-119, chain 2 of 2, further chain): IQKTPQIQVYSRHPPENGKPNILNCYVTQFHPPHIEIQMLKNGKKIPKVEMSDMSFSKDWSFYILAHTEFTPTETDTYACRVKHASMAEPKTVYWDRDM
UniProt P12318, sequence (P12318 34-317): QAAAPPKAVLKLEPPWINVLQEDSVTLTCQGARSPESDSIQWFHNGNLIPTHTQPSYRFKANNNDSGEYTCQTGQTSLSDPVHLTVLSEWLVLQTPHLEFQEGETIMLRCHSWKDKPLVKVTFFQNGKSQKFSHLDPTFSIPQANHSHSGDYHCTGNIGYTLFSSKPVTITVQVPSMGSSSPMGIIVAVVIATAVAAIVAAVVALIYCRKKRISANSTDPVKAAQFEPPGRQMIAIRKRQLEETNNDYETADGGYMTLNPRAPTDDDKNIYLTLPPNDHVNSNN

With intravenous immunoglobulin (IVIg), the dissociation constant (Kd) in assay [1] worked out at 554 nM; in [2] it was 40 nM; in assay [9] it was 17.1 nM; in assay [10], 469 nM. In addition, the IC50 in assay [3] was 1360 nM; in [4] it was 1310 nM; in [5] it was 671 nM; in [6], 880 nM; in [7] it was 761 nM; in assay [8], 1680 nM. Further, the IC50 of inhibition of IL-2 secretion by FcγRI-transfected Jurkat cells co-cultured with Raji cells coated with rituximab in assay [11] was above 1950 nM. For the same substance, in [11], the inhibitory concentration at 25% of IL-2 secretion by FcγRI-transfected Jurkat cells co-cultured with Raji cells coated with rituximab is 1110 nM.

Regarding “rFc-WT (non-mutated Fc fragment of human IgG1) (domain or fragment)”, the Kd in assay [12] worked out at 36.5 nM; in [13], 504 nM.
